From paper PMC7067851, “Formation of pre-pore complexes of pneumolysin is accompanied by a decrease in short-range order of lipid molecules throughout vesicle bilayers” (Scientific Reports, 2020)
Where a chain is given by its changes, count along the chain named. Numbers in names are those of the source.

B1: pneumolysin point mutant D205R (natural protein, Streptococcus pneumoniae, UniProt Q04IN8 1-471, looked up)
chain: MANKAVNDFILAMNYDKKKLLTHQGESIENRFIKEGNQLPDEFVVIERKKRSLSTNTSDISVTATNDSRLYPGALLVVDETLLENNPTLLAVDRAPMTYSIDLPGLASSDSFLQVEDPSNSSVRGAVNDLLAKWHQDYGQVNNVPARMQYEKITAHSMEQLKVKFGSDFEKTGNSLDIDFNSVHSGEKQIQIVNFKQIYYTVSVRAVKNPGDVFQDTVTVEDLKQRGISAERPLVYISSVAYGRQVYLKLETTSKSDEVEAAFEALIKGVKVAPQTEWKQILDNTEVKAVILGGDPSSGARVVTGKVDMVEDLIQEGSRFTADHPGLPISYTTSFLRDNVVATFQNSTDYVETKVTAYRNGDLLLDHSGAYVAQYYITWDELSYDHQGKEVLTPKAWDRNGQDLTAHFTTSIPLKGNVRNLSVKIRECTGLAWEWWRTVYEKTDLPLVRKRTISIWGTTLYPQVEDKVEND
notes: pneumolysin (PLY), Streptococcus pneumoniae, with D205R in domain 1; also called PLY D205R; source: purified
B2: pneumolysin point mutant T304R (natural protein, Streptococcus pneumoniae, UniProt Q04IN8 1-471, looked up)
chain: B1 chain with R205D, T304R
notes: pneumolysin (PLY), Streptococcus pneumoniae, with T304R in domain 3; also called PLY T304R; source: purified

Molecular target: the molecule itself
Experiment: negative-stain transmission electron microscopy; protein incubated with unilamellar liposomes (1:1 POPC/chol), stained with 1% w/v uranyl acetate on a copper grid; membrane-bound oligomeric structures visualised

Protein | binding result
B1 | binds
B2 | binds
